B2: N99A SufS (enzyme, E. coli)
chain: MIFSVDKVRADFPVLSREVNGLPLAYLDSAASAQKPSQVIDAEAEFYRHGYAAVHRGIHTLSAQATEKMENVRKRASLFINARSAEELVFVRGTTEGIALVANSWGNSNVRAGDNIIISQMEHHANIVPWQMLCARVGAELRVIPLNPDGTLQLETLPTLFDEKTRLLAITHVSNVLGTENPLAEMITLAHQHGAKVLVDGAQAVMHHPVDVQALDCDFYVFSGHKLYGPTGIGILYVKEALLQEMPPWEGGGSMIATVSLSEGTTWTKAPWRFEAGTPNTGGIIGLGAALEYVSALGLNNIAEYEQNLMHYALSQLESVPDLTLYGPQNRLGVIAFNLGKHHAYDVGSFLDNYGIAVRTGHHCAMPLMAYYNVPAMCRASLAMYNTHEEVDRLVTGLQRIHRLLG
notes: SufS cysteine desulfurase, E. coli, UniProt P77444, with N99A; gene in pET-21(a); Carries the PLP cofactor; No tag named; Dimer in the crystal structure; also called SufS N99A; source: E. coli BL21(DE3)Δsuf, pET21, purified (Q-XL, Phenyl HP, Superdex 200)
B3: N99D SufS (enzyme, E. coli)
chain: MIFSVDKVRADFPVLSREVNGLPLAYLDSAASAQKPSQVIDAEAEFYRHGYAAVHRGIHTLSAQATEKMENVRKRASLFINARSAEELVFVRGTTEGIDLVANSWGNSNVRAGDNIIISQMEHHANIVPWQMLCARVGAELRVIPLNPDGTLQLETLPTLFDEKTRLLAITHVSNVLGTENPLAEMITLAHQHGAKVLVDGAQAVMHHPVDVQALDCDFYVFSGHKLYGPTGIGILYVKEALLQEMPPWEGGGSMIATVSLSEGTTWTKAPWRFEAGTPNTGGIIGLGAALEYVSALGLNNIAEYEQNLMHYALSQLESVPDLTLYGPQNRLGVIAFNLGKHHAYDVGSFLDNYGIAVRTGHHCAMPLMAYYNVPAMCRASLAMYNTHEEVDRLVTGLQRIHRLLG
notes: SufS cysteine desulfurase, E. coli, UniProt P77444, with N99D; gene in pET-21(a); Carries the PLP cofactor; No tag named; Dimer in the crystal structure; residues 248 to 268 have no electron density; also called SufS N99D; source: E. coli BL21(DE3)Δsuf, pET21, purified (Q-XL, Phenyl HP, Superdex 200)

Key:
SufE (Escherichia coli) = SufE (Escherichia coli) (UniProt P76194); details: cited from earlier work
SufS = SufS (Escherichia coli, UniProt P77444); details: no SufE, 500 μM cysteine, with and without 2 mM TCEP, pH 8.0, 25 °C
N99A SufS [1] = target: B2; test: fluorescence polarisation; SufS (0.2-40 μM) titrated against 100 nM BODIPY-labelled C51A/E107C SufE; no cysteine; 50 mM MOPS pH 8, 150 mM NaCl, 0.1 mg/ml BSA; 30 min at room temperature; black 96-well plates; fit to a single-affinity site (Equation 3); details: both partners purified
N99D SufS [2] = target: B3; test: as above; details: both partners purified
[3] = target: T1, SufS cysteine desulfurase, wild type (E. coli, UniProt P77444 1-406); test: as above; details: both partners purified
T1 construct: SufS cysteine desulfurase, E. coli, UniProt P77444; gene in pET-21(a); PLP-dependent enzyme; as purified it carries the pyridoxal-5'-phosphate cofactor (internal aldimine); also called WT SufS; wt SufS; source: E. coli BL21(DE3)Δsuf, pET21, purified (Q-XL, Phenyl HP, Superdex 200)
T1 sequence: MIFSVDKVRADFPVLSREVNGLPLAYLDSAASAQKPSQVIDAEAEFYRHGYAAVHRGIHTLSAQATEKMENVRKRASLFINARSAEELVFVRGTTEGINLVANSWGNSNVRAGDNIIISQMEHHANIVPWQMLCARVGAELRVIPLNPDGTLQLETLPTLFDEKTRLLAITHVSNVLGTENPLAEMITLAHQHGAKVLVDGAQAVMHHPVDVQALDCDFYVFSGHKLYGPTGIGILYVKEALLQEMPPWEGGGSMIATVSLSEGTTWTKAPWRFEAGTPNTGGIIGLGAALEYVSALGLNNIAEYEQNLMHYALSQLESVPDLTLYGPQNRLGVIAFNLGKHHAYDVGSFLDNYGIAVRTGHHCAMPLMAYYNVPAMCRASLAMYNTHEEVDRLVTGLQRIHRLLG

D346R SufS = target: T2, D346R SufS (E. coli, UniProt P77444 1-406, D346R); test: as above; details: both partners purified
T2 construct: SufS cysteine desulfurase, E. coli, UniProt P77444, with D346R; gene in pET-21(a); No tag named; nothing is said of the oligomeric state of this variant; source: E. coli BL21(DE3)Δsuf, pET21, purified (Q-XL, Phenyl HP, Superdex 200)
T2 sequence: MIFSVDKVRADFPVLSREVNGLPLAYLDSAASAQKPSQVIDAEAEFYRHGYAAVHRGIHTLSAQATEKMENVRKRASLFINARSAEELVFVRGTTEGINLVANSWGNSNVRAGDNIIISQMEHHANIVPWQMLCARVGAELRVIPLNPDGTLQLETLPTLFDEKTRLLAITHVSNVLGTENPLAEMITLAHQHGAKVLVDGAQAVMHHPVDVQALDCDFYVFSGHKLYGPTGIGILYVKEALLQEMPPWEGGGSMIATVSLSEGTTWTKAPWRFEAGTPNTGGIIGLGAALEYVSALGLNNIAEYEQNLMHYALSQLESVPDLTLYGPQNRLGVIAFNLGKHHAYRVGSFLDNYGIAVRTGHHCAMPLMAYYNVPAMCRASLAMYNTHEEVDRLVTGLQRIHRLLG

N99A SufS [4] = target: B2; test: fluorescence polarisation; as without cysteine, but in the presence of 500 μM cysteine: SufS titrated against 100 nM BODIPY-labelled C51A/E107C SufE; 50 mM MOPS pH 8, 150 mM NaCl, 0.1 mg/ml BSA; room temperature; details: both partners purified
N99D SufS [5] = target: B3; test: as above; details: both partners purified
[6] = target: T1, SufS cysteine desulfurase, wild type; test: as above; details: both partners purified
[7] = target: the molecule itself; test: crystal structure; sitting drop vapor diffusion at 20 °C, 4 to 4.5 M NaCl, 100 mM MES pH 6.5; SufS variant alone, dimer

SufS (from UniProt P77444)
Kd (SufE (Escherichia coli)): 0.5 µM

N[C@@H](CS)C(=O)O [cysteine]
alanine production plate-reader assay; UV-visible cysteine-PLP intermediates (SufS): WT SufS is also capable of producing alanine

B1: BODIPY-labelled C51A/E107C SufE (natural protein, E. coli)
chain: MALLPDKEKLLRNFLRCANWEEKYLYIIELGQRLPELRDEDRSPQNSIQGAQSQVWIVMRQNAQGIIELQGDSDAAIVKGLIAVVFILYDQMTPQDIVNFDVRPWFCKMALTQHLTPSRSQGLEAMIRAIRAKAAALS
modifications: BODIPY FL maleimide on the cysteine at 107 (E107C); labelling efficiency between 60 and 80%
notes: SufE transpersulfurase, E. coli, UniProt P76194, with C51A and E107C; gene in pET-21(a); No tag named; also called labeled C51A/E107C SufE; BODPIY-C51A/E107C SufE; source: E. coli BL21(DE3), pET21, purified (Q-XL, Superdex 200), labelled with BODIPY FL maleimide
Kd (N99A SufS [1]): 6.2 ± 1.8 µM | Kd (N99D SufS [2]): 9.9 ± 3 µM | Kd [3]: 5.2 µM | Kd (D346R SufS): > 40 µM | Kd (N99A SufS [4]): 3.1 ± 0.6 µM | Kd (N99D SufS [5]): 3.3 ± 0.7 µM | Kd [6]: 0.6 ± 0.2 µM

B2
binding result [7]: binds

B3
binding result [7]: binds

Source: PMC10011822 (The Journal of Biological Chemistry, 2023)
